Reference: patent US20250018053A1

What was measured:
Assay in all cases: flow cytometry, transfected CHO cells
[1] = target: Human N4 (human) (UniProt Q96NY8)
[2] = target: Monkey N4
[3] = target: Mouse N4
[4] = target: Rat N4

Human N4 (human), sequence (Q96NY8 32-510): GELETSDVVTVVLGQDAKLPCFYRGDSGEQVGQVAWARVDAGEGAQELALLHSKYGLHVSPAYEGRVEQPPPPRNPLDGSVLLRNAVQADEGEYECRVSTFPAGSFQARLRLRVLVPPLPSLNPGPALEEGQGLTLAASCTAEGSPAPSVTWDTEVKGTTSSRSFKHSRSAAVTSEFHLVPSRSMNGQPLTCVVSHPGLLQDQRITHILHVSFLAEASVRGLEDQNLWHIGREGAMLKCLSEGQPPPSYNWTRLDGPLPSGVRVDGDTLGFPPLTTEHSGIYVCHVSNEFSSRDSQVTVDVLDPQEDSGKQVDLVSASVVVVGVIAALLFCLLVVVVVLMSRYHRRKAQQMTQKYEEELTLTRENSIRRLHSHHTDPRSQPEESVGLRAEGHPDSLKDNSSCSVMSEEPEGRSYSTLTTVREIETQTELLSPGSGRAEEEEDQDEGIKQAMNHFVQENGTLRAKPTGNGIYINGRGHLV

Enfortumab (HA22)
EC50 [1]: 346 pM | EC50 [2]: 67.8 pM | EC50 [3]: 41100 pM | EC50 [4]: 97 pM
